Data published in publication doi:10.1101/2023.08.10.552813.

How the values were obtained:
Assay in all cases: SPR
[1] = biological target: mouse Interleukin 33 (residues 112-270) (mouse)
[2] = biological target: HpARI_CCP2/3 (HpARI with CCP1 truncated) (Heligmosomoides polygyrus bakeri)
[3] = biological target: HpARI-LD (full-length HpARI with residues 180-188 of the CCP3 loop deleted) (Heligmosomoides polygyrus bakeri)
[4] = biological target: HpARI_CCP1/2 (HpARI with CCP3 truncated) (Heligmosomoides polygyrus bakeri)
[5] = biological target: Heligmosomoides polygyrus Alarmin Release Inhibitor (HpARI), full-length (Heligmosomoides polygyrus bakeri)

Sequence of HpARI_CCP2/3 (HpARI with CCP1 truncated) (Heligmosomoides polygyrus bakeri) (A0A3P7XL18 63-297): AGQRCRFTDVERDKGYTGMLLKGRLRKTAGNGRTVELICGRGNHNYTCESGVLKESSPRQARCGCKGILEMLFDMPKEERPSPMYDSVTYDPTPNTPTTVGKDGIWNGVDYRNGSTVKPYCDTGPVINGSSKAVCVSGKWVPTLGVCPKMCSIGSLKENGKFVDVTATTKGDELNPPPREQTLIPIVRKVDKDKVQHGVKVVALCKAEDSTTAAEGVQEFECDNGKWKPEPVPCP

Work on “HpARI-LD (full-length HpARI with residues 180-188 of the CCP3 loop deleted) (natural protein)” yielded a percent reduction of mIL-33 binding against HpARI [1] of 60% and a percent reduction of mIL-33 binding to ST2-Fc [1] of 25%.
For mouse IL-33 R159A (ligand), the fold reduction in binding affinity against wild-type mIL-33 [2] was 1000 fold.
Substance “mouse Interleukin 33 (residues 112-270) (ligand)” has a Kd [3] of 45 nM, a Kd [4] of 49 nM and a koff, fold over that of full-length HpARI [4] of over 100 fold. It also gave a Kd [2] of 4 nM and a Kd [5] of 0.048 nM.
